± gives the standard deviation of the averaged measurements.
Assay: total protein half-life in vivo (active degradation + dilution); higher = more stable protein
[1] = E. coli NCM3722 delta-clpP delta-lon delta-hslV, growth: N-lim chemostat, doubling time 6 h
[2] = E. coli NCM3722 delta-clpP, growth: N-lim chemostat, doubling time 6 h
[3] = E. coli NCM3722 delta-hslV, growth: N-lim chemostat, doubling time 6 h
[4] = E. coli NCM3722 delta-lon, growth: N-lim chemostat, doubling time 6 h
[5] = E. coli NCM3722 delta-smpB, growth: N-lim chemostat, doubling time 6 h
[6] = wild type E. coli NCM3722, growth: C-lim chemostat, doubling time 3 h
[7] = wild type E. coli NCM3722, growth: C-lim chemostat, doubling time 6 h
[8] = wild type E. coli NCM3722, growth: C-lim chemostat, doubling time 12 h
[9] = wild type E. coli NCM3722, growth: N-lim chemostat, doubling time 6 h
[10] = wild type E. coli NCM3722, growth: N-lim chemostat, doubling time 12 h
[11] = wild type E. coli NCM3722, growth: P-lim chemostat, doubling time 6 h
[12] = wild type E. coli NCM3722, growth: P-lim chemostat, doubling time 12 h

Sequence | total protein half-life in vivo [1] [h] | total protein half-life in vivo [2] [h] | total protein half-life in vivo [3] [h] | total protein half-life in vivo [4] [h] | total protein half-life in vivo [5] [h] | total protein half-life in vivo [6] [h] | total protein half-life in vivo [7] [h] | total protein half-life in vivo [8] [h] | total protein half-life in vivo [9] [h] | total protein half-life in vivo [10] [h] | total protein half-life in vivo [11] [h] | total protein half-life in vivo [12] [h]
MTTKKADYIWFNGEMVRWEDAKVHVMSHALHYGTSVFEGIRCYDSHKGPVVFRHREHMQRLHDSAKIYRFPVSQSIDELMEACRDVIRKNNLTSAYIRPLIFVGDVGMGVNPPAGYSTDVIIAAFPWGAYLGAEALEQGIDAMVSSWNRAAPNTIPTAAKAGGNYLSSLLVGSEARRHGYQEGIALDVNGYISEGAGENLFEVKDGVLFTPPFTSSALPGITRDAIIKLAKELGIEVREQVLSRESLYLADEVFMSGTAAEITPVRSVDGIQVGEGRCGPVTKRIQQAFFGLFTGETEDKWGWLDQVNQ [P0AB80] | 4.699 ± 0.033 | 4.25 ± 1.3 | 3.48 ± 0.06 | 4.94 ± 1.1 | 3.75 ± 0.1 | 3.24 ± 0.089 | 5.63 ± 0.072 | 10.9 ± 0.13 | 3.49 ± 0.13 | 5.36 ± 0.066 | 5.65 ± 0.27 | 10.9 ± 0.95
MAINNTGSRRLLVTLTALFAALCGLYLLIGGGWLVAIGGSWYYPIAGLVMLGVAWMLWRSKRAALWLYAALLLGTMIWGVWEVGFDFWALTPRSDILVFFGIWLILPFVWRRLVIPASGAVAALVVALLISGGILTWAGFNDPQEINGTLSADATPAEAISPVADQDWPAYGRNQEGQRFSPLKQINADNVHNLKEAWVFRTGDVKQPNDPGEITNEVTPIKVGDTLYLCTAHQRLFALDAASGKEKWHYDPELKTNESFQHVTCRGVSYHEAKAETASPEVMADCPRRIILPVNDGRLIAINAENGKLCETFANKGVLNLQSNMPDTKPGLYEPTSPPIITDKTIVMAGSVTDNFSTRETSGVIRGFDVNTGELLWAFDPGAKDPNAIPSDEHTFTFNSPNSWAPAAYDAKLDLVYLPMGVTTPDIWGGNRTPEQERYASSILALNATTGKLAWSYQTVHHDLWDMDLPAQPTLADITVNGQKVPVIYAPAKTGNIFVLDRRNGELVVPAPEKPVPQGAAKGDYVTPTQPFSELSFRPTKDLSGADMWGATMFDQLVCRVMFHQMRYEGIFTPPSEQGTLVFPGNLGMFEWGGISVDPNREVAIANPMALPFVSKLIPRGPGNPMEQPKDAKGTGTESGIQPQYGVPYGVTLNPFLSPFGLPCKQPAWGYISALDLKTNEVVWKKRIGTPQDSMPFPMPVPVPFNMGMPMLGGPISTAGNVLFIAATADNYLRAYNMSNGEKLWQGRLPAGGQATPMTYEVNGKQYVVISAGGHGSFGTKMGDYIVAYALPDDVK | 6.446 ± 0.039 | 7.31 ± 0.86 | 5.96 ± 0.15 | 6.58 ± 0.58 | 6.14 ± 0.11 | 3.18 ± 0.17 | 6.44 ± 0.37 | 13.8 ± 0.65 | 6.04 ± 0.28 | 13.4 ± 0.83 | 6.54 ± 0.22 | 13.69 ± 0.084
MLNERQLKIVDLLEQQPRTPGELAQQTGVSGRTILRDIDYLNFTLNGKARIFASGSAGYQLEIFERRSFFQLLQKHDNDDRLLALLLLNTFTPRAQLASALNLPETWVAERLPRLKQRYERTCCLASRPGLGHFIDETEEKRVILLANLLRKDPFLIPLAGITRDNLQHLSTACDNQHRWPLMQGDYLSSLILAIYALRNQLTDEWPQYPGDEIKQIVEHSGLFLGDNAVRTLTGLIEKQHQQAQVISADNVQGLLQRVPGIASLNIIDAQLVENITGHLLRCLAAPVWIAEHRQSSMNNLKAAWPAAFDMSLHFITLLREQLDIPLFDSDLIGLYFACALERHQNERQPIILLSDQNAIATINQLAIERDVLNCRVIIARSLSELVAIREEIEPLLIINNSHYLLDDAVNNYITVKNIITAAGIEQIKHFLATAFIRQQPERFFSAPGSFHYSNVRGESWQHITRQICAQLVAQHHITADEAQRIIAREGEGENLIVNRLAIPHCWSEQERRFRGFFITLAQPVEVNNEVINHVLIACAAADARHELKIFSYLASILCQHPAEIIAGLTGYEAFMELLHKG | 6.57 | – | – | – | – | – | – | – | – | – | – | –
MLQNIRIVLVETSHTGNMGSVARAMKTMGLTNLWLVNPLVKPDSQAIALAAGASDVIGNAHIVDTLDEALAGCSLVVGTSARSRTLPWPMLDPRECGLKSVAEAANTPVALVFGRERVGLTNEELQKCHYHVAIAANPEYSSLNLAMAVQVIAYEVRMAWLATQENGEQVEHEETPYPLVDDLERFYGHLEQTLLATGFIRENHPGQVMNKLRRLFTRARPESQELNILRGILASIEQQNKGNKAE [P0AE01] | 4.67 ± 0.57 | 4.013 ± 0.028 | 4.18 ± 0.18 | 5.15 ± 0.92 | 4.43 ± 0.4 | 2.8 ± 0.32 | 5.41 ± 0.56 | 9.64 ± 0.46 | 4.34 ± 0.23 | 7.52 ± 0.47 | 5.22 ± 0.042 | 10.6 ± 0.77
MKVLTVFGTRPEAIKMAPLVHALAKDPFFEAKVCVTAQHREMLDQVLKLFSIVPDYDLNIMQPGQGLTEITCRILEGLKPILAEFKPDVVLVHGDTTTTLATSLAAFYQRIPVGHVEAGLRTGDLYSPWPEEANRTLTGHLAMYHFSPTETSRQNLLRENVADSRIFITGNTVIDALLWVRDQVMSSDKLRSELAANYPFIDPDKKMILVTGHRRESFGRGFEEICHALADIATTHQDIQIVYPVHLNPNVREPVNRILGHVKNVILIDPQEYLPFVWLMNHAWLILTDSGGIQEEAPSLGKPVLVMRDTTERPEAVTAGTVRLVGTDKQRIVEEVTRLLKDENEYQAMSRAHNPYGDGQACSRILEALKNNRISL | 4.18 ± 0.042 | 4.52 ± 0.26 | 4.56 ± 0.14 | 4.96 ± 0.82 | 3.55 ± 0.33 | 3.23 ± 0.27 | 5.8 ± 0.64 | 10.5 ± 2.5 | 4.16 ± 0.4 | 8.18 ± 0.94 | 6.17 ± 0.78 | 10.1 ± 1.9
MKLKNTLLASALLSAMAFSVNAATELTPEQAAAVKPFDRVVVTGRFNAIGEAVKAVSRRADKEGAASFYVVDTSDFGNSGNWRVVADLYKADAEKAEETSNRVINGVVELPKDQAVLIEPFDTVTVQGFYRSQPEVNDAITKAAKAKGAYSFYIVRQIDANQGGNQRITAFIYKKDAKKRIVQSPDVIPADSEAGRAALAAGGEAAKKVEIPGVATTASPSSEVGRFFETQSSKGGRYTVTLPDGTKVEELNKATAAMMVPFDSIKFSGNYGNMTEVSYQVAKRAAKKGAKYYHITRQWQERGNNLTVSADLYK | 5.73 ± 0.21 | 5.99 ± 0.45 | 5.8 ± 0.2 | 5.46 ± 0.12 | 5.116 ± 0.0047 | 3.13 ± 0.059 | 5.73 ± 0.11 | 10.5 ± 0.55 | 5.47 ± 0.23 | 9.68 ± 0.69 | 5.61 ± 0.079 | 11.1 ± 0.13
